From article PMC11724365, “Novel archaeal ribosome dimerization factor facilitating unique 30S–30S dimerization” (Nucleic Acids Research, 2025)

Target: the molecule itself
Assay: cryo-EM structure; 1 uM P. furiosus 30S subunits with 5 uM aRDF (1:5) in 20 mM HEPES-KOH pH 7.0, 12 mM MgCl2, 100 mM NH4Cl, 0.5 mM EDTA; 15 min at 70 °C before freezing; Structures I and II at 3.2 Å

B1: archaeal ribosome dimerization factor (aRDF) (natural protein, Pyrococcus furiosus)
chain: MKVVGIKGSVSYLQALKYLKTKKVTKRLKEIEKLVDTLITLAPYAPEGSKIETIRKNYAKISFNKIKTVSRSKIGSPRIKSIMLLLWNFGLLDVKIIENSWYVRKTKLASLLEENFKDLSPSEKLKVYLLGGLLVDTPARFVYRCTLNGVEDYKGVKKAILGYLSDQRSNSLIIGLSNMLESIKFIEEAQAYSGKKEYIGLVDVAFYGLSGLYLDVKRESGKLTVKPNFRELRALYEIDKSVATGSDYGLSISKEILENLANTKRRKTIFSEEVQELLVNVIKENAISISQDLQNMYGII
notes: aRDF (PF0560 protein) of Pyrococcus furiosus; modelled in PDB 9FNY and 9FNZ with poorly defined loops omitted; Forms homodimers (monomers A and B); two homodimers bridge two 30S subunits in the cryo-EM structures; also called PF0560; PF0560 protein; source: E. coli BL21(DE3), purified (heat treatment, Ni-NTA, heparin)
  stoichiometry N: 2
